Test results as given in the nanobody polyreactivity screen of Harvey et al. (2022).

Test: yeast display, Sf9 membrane polyspecificity reagent, FACS + sequencing; frameworks hold sequencing errors
Summary of the method: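 In a synthetic yeast display library (Saccharomyces cerevisiae BJ5465), nanobody expression was induced with galactose for 36–48 hours. FACS gates were set low and high (top ~1%) using anti-HA fluorescence for expression and streptavidin fluorescence for binding of the Sf9 membrane reagent. Each polyreactivity label is drawn from the gate of origin.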

Sequence	polyreactivity (PSR sort gate)
QDQLVESGGGLVQAGGRLRLSCAASGFIFWLYAMGWYRQAPGKERELVASINWSGGDTYYADSVKGRFTISRDNAKNTVYLQMNSLKPEDTAVYYCAADWSNLGAYDYWGQGTQVTVSS	low polyreactivity
QDQLVESGGGLVQAGGRLRLSCAASGRTFSSYAMGWYRQAPGKERELVAAISRRGSSTFYADSVKGRFTISRDNAKNTVYLQMNSLKPEDTAVYYCNADLSGQTRYDYWVQGTQVTVSS	high polyreactivity
QDQLVESGGGLVQAGGRLRLSCAAYGRIFRRYAMGWYRQAPGKEREFVAAISSGGSTYYADSVKVRFTISRDNAKKYRLFTAEQPETGRYRGLLLRCVRYDVNVYDYWGQGTQVTVSS	low polyreactivity
QDQLVESGGGLVQAGGRLRLTCAASGAIFSNYAMGWYRQAPGKERELLAAITNGVSTNYAVSVKGRLTISRDNAKNTVFLQMNSLKPEDTAVYYCAAVGYRATYRVGGYLRYYYWGQGTQVTVSS	high polyreactivity
QDQLVESGGGLVQAGGSHRLSCAASGRTFYLYAMGWYRHAPGKERELVAGISYRGSRTYYADSVKVRFTISRDYEKNTVYLQMNSLKPEDTAVYYCATPAGQAAYDYWGQGTQVTVSS	high polyreactivity
QDQLVESGGGLVQAGGSLLLSCAASGIIITGNAMVWYRQAPGKERELVAGITGSGGNTYYADCVKGRYTISRDNAKNTFYLQMNSLKPEDTGVYYCAARRHIFLLIIWSGRVDYWGQGTQVTVSS	low polyreactivity
QDQLVESGGGLVQAGGSLRISCAASGRIFRRNTMGRYRQAPGKERELVADINSSDGDTYYADSVKGRFTISRDNAKNTVYLQMNSLKPEDTAVYYCAADLSPLGEMDYWGQGTQVTVSS	low polyreactivity
QDQLVESGGGLVQAGGSLRLICAASGRTFITYSMGWYRQAPGKERELVAAISWNGGTTYYADSVKGRFTISRDNAKNTVYIQMNSLKPEVTAVYYCAGYRWYSAARMGYWGQGTQVTVSS	high polyreactivity
QDQLVESGGGLVQAGGSLRLICAASGSIFDFYTMGWYRQAPGKERELVAAITYSGGRTYYADSVKGRFTISRDNAKNTVYLQMNSLKPEDTAVYYCAASTGSSAYDDYWGQGTQVTVSS	high polyreactivity
QDQLVESGGGLVQAGGSLRLICAASGSIFSKKAMGLYRQAPGKERELVAAISASGASTYYADSVKGRFTISRDNEKNTVYLQMNSLKPEDTSVYYCNADVSGVSSYGLSYEFYYWGQGTQVTVSS	low polyreactivity
QDQLVESGGGLVQAGGSLRLSCAACGIMFGKYAMGWYREAPGKERELVAAITWSGGRTYYADSVTGRFTISRANAKNTVYLPMNSLKPEDTAVYYCAADVKYGYDWGQGTQVTVSS	high polyreactivity
QDQLVESGGGLVQAGGSLRLSCAASGFTFAENAMGWYRQATGKEGELVAAISGSGGSTYYADSVKGRFTISRDNAKNTVYLQMNSLKPEDTAVYYCAADKPRPQYTDDDYWGQGTQVTVSS	high polyreactivity
QDQLVESGGGLVQAGGSLRLSCAASGFTFARNGMGWYRQAPVKEREFVAAITRSGGRTYYADSVKGRFTISRDNAKNTVYLQMNSLKPQDTAVYYCAAATSYGKSEYDYWGQGTQVTVSS	high polyreactivity
QDQLVESGGGLVQAGGSLRLSCAASGFTFDRYAMGWYRQAPGKERELVAAITSSGGSTYYADSVKGRFTISRDNAKNTVYLQMNSLKPEDTAVYYCAVAYSSHTSYYSWGQSTQVTVSS	low polyreactivity
QDQLVESGGGLVQAGGSLRLSCAASGFTFGDNAMGWYRQAPGKERELVAAITSSGSTNYADSVKGRFTISRDNAKNTVYLQMNSLKPEDTAVYYCNAEDSVDAPVYKDLGSEYDSWGQGTQVTVSS	low polyreactivity
QDQLVESGGGLVQAGGSLRLSCAASGFTFGYYAMGWYRQAPGKERELVAAISSGSSTYYADSVKGRFTISRDNAKNTVDLQMISLTPEDTAVFYCAATGDNNTPSGYDYWGQGTQVTVSS	high polyreactivity
QDQLVESGGGLVQAGGSLRLSCAASGFTFNANAMGWYRQAPGKERELVAAITRSGGRTYYADSVKGRFTISRDNAKNTVYLQMNSLKPEDTAVYYCANLVTNGRYDSWGQGTQVTVSS	high polyreactivity
QDQLVESGGGLVQAGGSLRLSCAASGFTFVRYAMVWYRQAPGKERELVAAISSSGGSTYYADSVKGRFTISRDNAKNTVYLQMNSLKPEDTAVYYCADGPFYRFTDGRYKSLDYCGQGTQVTVSS	high polyreactivity
QDQLVESGGGLVQAGGSLRLSCAASGFTFYLYAMGWYRQAPGKERELVAAINGGGSSTYYADSVKGRFTISRDNAKTTVYLEMNSLKPEDTAVYYCNAVYYVVYVKEFDYWGQGTQVTVSS	high polyreactivity
QDQLVESGGGLVQAGGSLRLSCAASGFTFYPYAMGWYRQAAGKERELVASITNGGSTNYADSVKGRFTISRDNAKNTVYLQMNSLKPEDTAVYYCNAAYGFYASRYWYASYDYWGQGTQVTVSS	low polyreactivity
QDQLVESGGGLVQAGGSLRLSCAASGFTFYQYAMGLYIQAPGKERELVASITWNGGSTFYADSVKGRFTISRDNAKNTVYFQMNSLKPEDTAVYYCNVAYVYGSFRRRPMGYWGQGTQVTVSS	high polyreactivity
QDQLVESGGGLVQAGGSLRLSCAASGGIFPAYAMGWYSQAPGKERELVASISANGGRTYYADSVKGRFTISRDNAKNTVYLQMNSLKPEDTAVYYCNKRWLHWSGYDYWGQGTQVTVSS	high polyreactivity

Sequence	polyreactivity (PSR sort gate)
QDQLVESGGGLVQAGGSLRLSCAASGGTFGLNAMGWYRQAPGKERELVADIDGRGGCTYYADSVKGRFTISRDNAQNTVYLQMNSLKPEDTAVYYCAARAPFLSVPTELDYWGQGTQVSVSS	low polyreactivity
QDQLVESGGGLVQAGGSLRLSCAASGIIFAWYVMGWYRQAPGKERELVATITSSGGRTYYADSVKGRFTISRDNAKNTVYLQMNSLKPEDTAVYYCNAALTRAFKHSTGYDYWGQGTQVTVSS	low polyreactivity
QDQLVESGGGLVQAGGSLRLSCAASGIIFDYYAMGWYRQAPGKERELVASISWSGGGTYYADSVKGRFTISRDNAKNTVYLQMNSLKAEDTAVYYCAADGSTVNAPRWSDPYDYWGQGTQVTVSS	low polyreactivity
QDQLVESGGGLVQAGGSLRLSCAASGIIFYDYAMGWYRQAPGKERELVAAITSNGDNTYYADSVKGRFTISRDNAKNTVYLQMNSLKPEDTAGYYCAVDGSFAADFDNYLEEYGYWGQGTQVTVSS	low polyreactivity
QDQLVESGGGLVQAGGSLRLSCAASGIILRYYVMGWYRQAPGKERELVAAITSRGGSTYYADSVKGRFTISRDNAKNTVYLQMNSLKPEDTAVYYCAAGYRNVNTFDYWGQGTQVTVSS	high polyreactivity
QDQLVESGGGLVQAGGSLRLSCAASGILDRYAMGWYRQAHGKERELFAAISYIAGSTYYADSVKGRFTISRDNAKNTVYLQLNSLKPEVTAVYYCAARGFGTVNGKLYGYWGQGTQVTVSS	high polyreactivity
QDQLVESGGGLVQAGGSLRLSCAASGITFAYYVMGWYRQATGKERELVAAISRSGSTYYADSVKGRFTISRDNAKNTVYLQMNSLKPEDTAVNYCAVLYIRWYTYEYWGQGTQVTVSS	high polyreactivity
QDQLVESGGGLVQAGGSLRLSCAASGITFSGNAKGCYRQAPGKETELVAAISRNGGRTYYADSVKGRFTISRDNAKNTVYLQMNSLKQEDTAVYYCAKDAYGYFRVSAWYYTYDYWGQGTQVTVSS	high polyreactivity
QDQLVESGGGLVQAGGSLRLSCAASGITIYRYVMGCSRQAPGKEREFVASITQSTGSTHYADSVKGRFTISRDNAKNTVYLQMNSLKPEDTAVYYCNAQKIVYYWVTLFPYYYWGQGTQVTVSS	low polyreactivity
QDQLVESGGGLVQAGGSLRLSCAASGLIFFFYPMGWYRQAPGKERELVASISGGGITYYADSVKGRFTISRDNAKNTVYLQMNSLKQEDTPVIKNDYWGQGTQVTLSS	low polyreactivity
QDQLVESGGGLVQAGGSLRLSCAASGLSFASYVMGWYRQAPGKERELVAAISSSGDSTYYADSVKGRFTLSRDNAKNTVYLQMNSLKPEDTAVYYCAAKDYVWGQGTQVTVSS	low polyreactivity
QDQLVESGGGLVQAGGSLRLSCAASGLTFKRNAMGWYRQAPVKERELVAAIRYSTDSTNYADSVKGRFTISRDNAKNTVYLQLNSMNPEDTAVYYCAKDKQDYEYWGQGTQVTVSS	low polyreactivity
QDQLVESGGGLVQAGGSLRLSCAASGLTFLWYNMGWYRPAPGKERELVAGITWSGGSTYYADSVKGRFTISRDNAKNTVYLQMNSLKPEDTAVYYCAASFLWKVTGEYYYWGQGTQVTVSS	high polyreactivity
QDQLVESGGGLVQAGGSLRLSCAASGLTFTYYAMGWYRQAPGKERELVAAMTWNGGRTYYADSVKGRFTISRDNAKNTVYLLMNSLKPEDTAVYYCNARYILSSSGFGYWRQGTQVTVSS	high polyreactivity
QDQLVESGGGLVQAGGSLRLSCAASGLTFYQYDMGWYRQAPGKERELVAAISRSGGRTYYADSVKGRFTISRDIAMITVYLQMNSLKPEDTAVYYCARPDKRLEYSENYYWGQGSQVTVSS	high polyreactivity
QDQLVESGGGLVQAGGSLRLSCAASGLTLKENVMGWYRQAPGKERELFAAISTGASTYYADSVKGRFTISRDNAKNTVYLQMNSLKPEDTAVYYCAKRVTPWYGYWGQGTQVTVSS	high polyreactivity
QDQLVESGGGLVQAGGSLRLSCAASGNIFCYYVMGWYRQAPGKERELVAAITWSGGTTNYADSVKGRFTISRDNAKNTVYLQMNSLKPDDTAVYDCATDRYAYKLYDYWGQGTQVTVSS	low polyreactivity
QDQLVESGGGLVQAGGSLRLSCAASGNIIRKYAMGWYRQAAGKEREFVAAISSSGGRTYYADSVKGRFTISRDNAKNTVYLQMNSLKPEDTAVYYCAAEDWSYYDYDYWGQGTQVTVSS	high polyreactivity
QDQLVESGGGLVQAGGSLRLSCAASGRIFDDTAMGWSRPAPGKERELVAAITGGGRTNYADSVKGRFTISRDNAKNTVYLQMNSLKPEDTAVYYCAAATYGWVIYIYDYWGQGTQVTVSS	low polyreactivity
QDQLVESGGGLVQAGGSLRLSCAASGRIFDYNVMGWYRQAPGTEREFVADINGSGGGTNYADSVKGRFTISRDNAKNTVYFLMNSLKPEDTAVSYCNADSYEYHVPYYDYRYDYWGQGTQVTVSS	low polyreactivity
QDQLVESGGGLVQAGGSLRLSCAASGRIFYFNTMGWSRQAPGKERELVAAISKNGGSTYYADSVKGRFTISRDIAKNTVYLQMNSLKPEDTAVYYCAKTRRLSPYDYWGQGTQVTVSS	high polyreactivity
